Here are results for three substances from patent EP1959993B1.

pKd: −log10 of the molar value.

The target of one assay is CEA (UniProt P06731). Briefly: SE-HPLC of 125I-TF2 mixed with a 20-fold molar excess of CEA.
Assay [1] deals with fusion protein containing the A3B3 domain of CEA (UniProt P06731). The experiment in a line: competitive ELISA against HRP-conjugated hMN-14 IgG on the A3B3 fusion protein. (ELISA stands for enzyme-linked immunosorbent assay.)
Assay [2] concerns the target recombinant human RIIα (human) (UniProt P13861). Briefly: equilibrium SE-HPLC.
Chain of UniProt P13861 (P13861 whole entry): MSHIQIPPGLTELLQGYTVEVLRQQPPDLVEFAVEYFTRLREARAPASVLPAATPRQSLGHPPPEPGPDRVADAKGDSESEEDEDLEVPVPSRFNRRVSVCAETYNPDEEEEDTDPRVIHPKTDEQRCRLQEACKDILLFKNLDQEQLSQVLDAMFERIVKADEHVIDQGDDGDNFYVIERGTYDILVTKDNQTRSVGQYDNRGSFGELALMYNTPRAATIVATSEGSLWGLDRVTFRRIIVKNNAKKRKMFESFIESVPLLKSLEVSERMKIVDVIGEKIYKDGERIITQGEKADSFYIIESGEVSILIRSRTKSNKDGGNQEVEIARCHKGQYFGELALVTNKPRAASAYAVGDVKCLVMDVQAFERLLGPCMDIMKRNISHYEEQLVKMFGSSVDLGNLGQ
In assay [3] the target is C-DDD1-Fab-hMN-14 (human). Briefly: equilibrium SE-HPLC.
For assay [4], the target named is N-DDD1-Fab-hMN-14 (human). Briefly: equilibrium SE-HPLC.
The target of assay [5] is C-DDD1-Fab-hMN-14 (human). Briefly: SE-HPLC of the mixture with hMN14-Fab-DDD1; h679-Fab-AD2 not reduced.
Assay [6] addresses C-DDD1-Fab-hMN-14 (human). Briefly: SE-HPLC of the mixture with hMN14-Fab-DDD1; h679-Fab-AD2 reduced with TCEP.

Consider TF2 (bispecific antibody), for which the percent shifted to a high molecular weight species with CEA is 95%. This substance showed an avidity, fold against TF1 in assay [1] of 2 fold.
As a reminder, the pKd is the Kd on a negative log10 scale, so that one unit is a factor of ten. As to h679-Fab-AD1, the values for the pKd in assay [2], in assay [3] and in assay [4] were 7.52, 7.82 and 8.10, respectively.
With h679-Fab-AD2, the fraction reactive in assay [5] came out at 0.33. In addition, in assay [6], the percent activity came out at 100%.
